{"source": "paper PMC6335422", "about": "(Nature Communications, 2019)", "molecules": {"B1": {"name": "SUMO-tagged Mmi1 95-122 (domain or fragment, S. pombe, UniProt O74958 95-122, looked up)", "chain": "GKYDFSRHCTDYGHSYEWPYFRSLRRES", "notes": "SUMO stands after the His6 tag at the N-terminus; also called Mmi1wt; source: E. coli BL21 (Gold), purified (Ni-chelating resin, size-exclusion chromatography); not shown: SUMO, N-terminal, kept"}, "B2": {"name": "His-tagged Erh1 (residues 1-104) (natural protein, S. pombe, UniProt G2TRN4 1-104, looked up)", "chain": "MSPPPAESHIILLIQQGSDPKTRIWSDHCSLRSAIEYIVGVYQTNQAVSEKESIDVSRFFNFFDEIYDCVPLVYDRHFRAYIPHEKQWLLHHAQEYLTAARQIP", "notes": "Erh1 (Enhancer of rudimentary homolog 1), S. pombe, residues 1-104; Cloned into p28a, a modified pET28a without a thrombin cleavage site; Homodimer by SEC and in the crystal; also called Enhancer of rudimentary homolog 1; source: E. coli BL21 (Gold), purified (Ni-chelating resin, SEC)"}, "B3": {"name": "SUMO tagged Mmi1^95-122 (domain or fragment, S. pombe, UniProt O74958 95-122, looked up)", "chain": "GKYDFSRHCTDYGHSYEWPYFRSLRRES", "notes": "SUMO protein fused at the N-terminus following the His6 tag (modified pET28a); source: E. coli BL21 (Gold), purified (Ni-chelating resin, SEC); not shown: SUMO, N-terminal, kept"}, "B4": {"name": "Mmi1^95-122 peptide (SUMO tag removed) (peptide, UniProt O74958 95-122, looked up)", "chain": "GKYDFSRHCTDYGHSYEWPYFRSLRRES", "notes": "also called EID; EIM peptide; source: E. coli BL21 (Gold), purified as SUMO fusion, incubated with Erh1, SUMO tag removed by ULP1; not shown: His6, N-terminal, cleaved; SUMO, N-terminal, cleaved"}, "B5": {"name": "Erh1: S. pombe ortholog of human ERH (protein)", "chain": "B2 chain", "modifications": "left off: His6, end not stated, state not stated", "notes": "S. pombe ortholog of human ERH"}, "B6": {"name": "GST-tagged YTH domain of Mmi1: carboxy-terminal YTH domain of Mmi1, purified GST fusion (protein)", "chain": "SRYFIMLCDNETAIAHAKKTSIWAVKKDSSKRISDAYKKASVYFIFVAQQTYNALGYAQVVSDLNSTELPFWSDSSHAGGVRIKWIKTCNLFSAEISEIVSHMDHGSEARDGMEMMYDEGSRLCTLI", "modifications": "left off: GST, end not stated, kept", "notes": "carboxy-terminal YTH domain of Mmi1, purified GST fusion"}}, "key": {"Erh1 H9A": {"target": "T1, Erh1 H9A (S. pombe, UniProt G2TRN4 1-104, H9A)", "T1 construct": "Erh1, S. pombe, residues 1-104, point mutant made with the MutanBEST kit; source: E. coli BL21 (Gold), purified (Ni-chelating resin, size-exclusion chromatography)", "T1 sequence (looked up)": "B2 chain with H9A", "assay": "ITC; SUMO-tagged Mmi1 peptides titrated into Erh1 in the sample cell; MicroCal iTC200, 293 K; 20 mM Tris-HCl pH 7.5, 150 mM NaCl; single-site binding model", "conditions": "both partners purified"}, "Erh1 D68A": {"target": "T2, Erh1 D68A (S. pombe, UniProt G2TRN4 1-104, D68A)", "T2 construct": "Erh1, S. pombe, residues 1-104, point mutant made with the MutanBEST kit; source: E. coli BL21 (Gold), purified (Ni-chelating resin, size-exclusion chromatography)", "T2 sequence (looked up)": "B2 chain with D68A", "assay": "ITC; SUMO-tagged Mmi1 peptides titrated into Erh1 in the sample cell; MicroCal iTC200, 293 K; 20 mM Tris-HCl pH 7.5, 150 mM NaCl; single-site binding model", "conditions": "both partners purified"}, "Erh1 R23A": {"target": "T3, Erh1 R23A (S. pombe, UniProt G2TRN4 1-104, R23A)", "T3 construct": "Erh1, S. pombe, residues 1-104, point mutant made with the MutanBEST kit; source: E. coli BL21 (Gold), purified (Ni-chelating resin, size-exclusion chromatography)", "T3 sequence (looked up)": "B2 chain with R23A", "assay": "ITC; SUMO-tagged Mmi1 peptides titrated into Erh1 in the sample cell; MicroCal iTC200, 293 K; 20 mM Tris-HCl pH 7.5, 150 mM NaCl; single-site binding model", "conditions": "both partners purified"}, "Erh1 E85A": {"target": "T4, Erh1 E85A (S. pombe, UniProt G2TRN4 1-104, E85A)", "T4 construct": "Erh1, S. pombe, residues 1-104, point mutant made with the MutanBEST kit; source: E. coli BL21 (Gold), purified (Ni-chelating resin, size-exclusion chromatography)", "T4 sequence (looked up)": "B2 chain with E85A", "assay": "ITC; SUMO-tagged Mmi1 peptides titrated into Erh1 in the sample cell; MicroCal iTC200, 293 K; 20 mM Tris-HCl pH 7.5, 150 mM NaCl; single-site binding model", "conditions": "both partners purified"}, "Erh1 D27A": {"target": "T5, Erh1 D27A (S. pombe, UniProt G2TRN4 1-104, D27A)", "T5 construct": "Erh1, S. pombe, residues 1-104, point mutant made with the MutanBEST kit; source: E. coli BL21 (Gold), purified (Ni-chelating resin, size-exclusion chromatography)", "T5 sequence (looked up)": "B2 chain with D27A", "assay": "ITC; SUMO-tagged Mmi1 peptides titrated into Erh1 in the sample cell; MicroCal iTC200, 293 K; 20 mM Tris-HCl pH 7.5, 150 mM NaCl; single-site binding model", "conditions": "both partners purified"}, "[1]": {"target": "T6, GST-tagged Mmi1^1-122 amino-terminal fragment (S. pombe, UniProt O74958 1-122)", "T6 construct": "Vector Tev4T1 (modified pGEX-4T1 with a TEV site); source: E. coli BL21 (Gold), purified (glutathione sepharose, SEC)", "T6 sequence (looked up)": "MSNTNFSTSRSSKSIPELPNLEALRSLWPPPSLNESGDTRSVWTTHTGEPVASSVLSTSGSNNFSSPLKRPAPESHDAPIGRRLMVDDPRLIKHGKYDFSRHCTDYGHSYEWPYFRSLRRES", "assay": "pull-down; GST-Mmi1 fusion proteins incubated with Erh1, collected with glutathione-agarose resin, eluted, SDS-PAGE with Coomassie blue staining", "conditions": "both partners purified"}, "[2]": {"target": "the molecule itself", "assay": "SEC; analytical size-exclusion chromatography, calibrated Superdex75 10/300 GL column; Erh1 alone and Erh1 with Mmi1^95-122 after removal of the SUMO tag by ULP1"}, "[3]": {"target": "B2", "assay": "ITC; MicroCal iTC200, 293 K, 20 mM Tris-HCl pH 7.5, 150 mM NaCl; SUMO-tagged Mmi1 peptides titrated into Erh1 in the cell; single-site binding model", "conditions": "both partners purified"}, "[4]": {"target": "B2", "assay": "SEC; analytical size-exclusion chromatography, calibrated Superdex75 10/300 GL column; Erh1 alone and Erh1 with Mmi1^95-122 after removal of the SUMO tag by ULP1", "conditions": "both partners purified"}, "[5]": {"assay": "Analytical size-exclusion chromatography (oligomeric state)", "format": "physicochemical", "experimental": "Next, we assessed the stoichiometry of Erh1 and Erh1-Mmi1^95–122 complexes by analytical size-exclusion chromatography (SEC) using a calibrated Superdex75 10/300 GL column (GE Healthcare). Erh1 eluted as a single peak at 11.41 mL, corresponding to an apparent molecular weight (MW) of 26 kDa. With a predicted molecular weight (MW) of ~13.2 kDa, this elution profile likely represents Erh1 homodimers (Fig. 1g). This is consistent with previous reports showing that human ERH protein exists as a dimer in solution[37].\nWe next purified SUMO-tagged Mmi1^95–122 and incubated it with Erh1, followed by removal of the SUMO tag by ULP1 enzyme."}, "Erh1": {"tested_on": "Erh1", "assay": "GST pull-down of Erh1 with GST-tagged Mmi1 fragments, Coomassie", "format": "binding, S. pombe", "conditions": "GST-Mmi1 fusion incubated with Erh1, glutathione-agarose, SDS-PAGE", "from_the_text": "Fig. 1 Mmi1 interacts with Erh1 in a 2:2 stoichiometry. a Shown is a schematic representation of the domain architecture of Mmi1. The disorder score from DISOPRED3 Server[62] and the conservation score are shown below. The conservation score is generated by a Protein Residue Conservation Prediction Server[63] from the sequence alignment of Mmi1 orthologues from S. pombe, S. cryophilus, S. octosporus, and S. japonicus. b–d Interactions of GST tagged Mmi1 peptides (GST-Mmi1) with Erh1 visualized by Coomassie blue staining. The indicated GST-Mmi1 fusion proteins or GST alone were incubated with Erh1. The complexes were collected with glutathione-agarose resin and bound proteins were eluted and then subjected to SDS-PAGE. GST or GST-Mmi1 fusion proteins without Erh1 are shown as a negative control. Source data are provided as a Source Data file. e The raw ITC titration data of Erh1 with SUMO tagged Mmi1^95–122 and its fitting curve are shown. KD dissociation constant, DP differential power, N binding stoichiometry, ΔH binding enthalpy. f ITC fitting curves of Erh1 using SUMO tagged Mmi1^95–122 (magenta), Mmi1^106–122 (blue) and Mmi1^95–111 (green) are shown. g Size-exclusion analysis of Erh1 (magenta) and Erh1-Mmi1^95–122 (blue). Marker sizes are 62.9 KDa (Albumin), 46.7 KDa (Ovalbumin), 20.3 KDa (Chymotrypsinogen), 14.6 KDa (Ribonuclease A). Also shown are theoretical monomer sizes (kDa) of Erh1 protein and Mmi1^95–122 peptide TEXT PRINTED IN THE PICTURE: (e) Mmi1^95–122 - Erh1: KD (μM) 0.83±0.19; N (sites) 0.90±0.01; ΔH (kJ per mol) −106±3.02 | (f) Mmi1^95–122: Erh1 KD (μM): 0.83±0.19 | (f) Mmi1^106–122: Erh1 KD (μM): 9.94±1.19 | (f) Mmi1^95–111: Erh1 KD (μM): no binding | (g) Erh1: 13.2 kDa | (g) Mmi1^95–122: 3.5 kDa\nA region of Erh1 (residues 1–104) was amplified by PCR from the S. pombe genome and cloned into a modified pET28a (Novagen) vector without a thrombin protease cleavage site (p28a). GST-Mmi1^YTH was sub-cloned from a Mmi1^YTH-p28a construct to a modified PGex-4T1 vector with a TEV protease cleavage site (Tev4T1). […]"}}, "note": "Changes are numbered by the printed parent chain.", "data": [{"molecule": "B1", "values": [{"measurement": "Kd", "setting": "Erh1 H9A", "value": "1530 ± 205", "unit": "nM"}, {"measurement": "stoichiometry N", "setting": "Erh1 H9A", "value": 1.32}, {"measurement": "Kd", "setting": "Erh1 D68A", "value": "3960 ± 551", "unit": "nM"}, {"measurement": "stoichiometry N", "setting": "Erh1 D68A", "value": 1.34}, {"measurement": "Kd", "setting": "Erh1 R23A", "value": "1480 ± 1070", "unit": "nM"}, {"measurement": "stoichiometry N", "setting": "Erh1 R23A", "value": 1.28}, {"measurement": "Kd", "setting": "Erh1 E85A", "value": "2150 ± 291", "unit": "nM"}, {"measurement": "stoichiometry N", "setting": "Erh1 E85A", "value": 1.08}, {"measurement": "Kd", "setting": "Erh1 D27A", "value": "2040 ± 366", "unit": "nM"}, {"measurement": "stoichiometry N", "setting": "Erh1 D27A", "value": 1.14}]}, {"molecule": "B2", "values": [{"measurement": "binding result", "setting": "[1]", "value": "binds"}, {"measurement": "stoichiometry N", "setting": "[2]", "value": 2}]}, {"molecule": "B3", "values": [{"measurement": "Kd", "setting": "[3]", "value": "830 ± 190", "unit": "nM"}, {"measurement": "stoichiometry N", "setting": "[3]", "value": 0.9}]}, {"molecule": "B4", "values": [{"measurement": "stoichiometry N", "setting": "[4]", "value": "1 Mmi1 per Erh1 (printed as 2:2)"}]}, {"molecule": "B5", "values": [{"measurement": "calculated molecular weight of complex with Erh1 by SEC", "setting": "[5]; Erh1 associated with Mmi1^95–122 after SUMO tag removal by ULP1, consistent with 2:2 stoichiometry", "value": 33, "unit": "kDa"}, {"measurement": "apparent molecular weight by SEC (Erh1 alone)", "setting": "[5]; Superdex75 10/300 GL, calibrated, predicted monomer ~13.2 kDa, likely homodimer", "value": 26, "unit": "kDa"}]}, {"molecule": "B6", "values": [{"measurement": "interaction with Erh1 (GST pull-down)", "setting": "Erh1", "value": "no interaction"}]}]}
